The text below walks through data of the supplement of paper PMC6379048.

Assay in all cases: Kd (EC50 corrected by depletion factor)
For one data set, the target named is ELAVL1 (UniProt Q15717). The gist of the method: (§1)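 To obtain EC50, data were fitted with a four-parameter log-logistic model; Kd was then EC50 multiplied by a protein-dependent depletion factor. Beforehand, free RNA oligos (0 nM to 30 μM) were pre-incubated with HEK293-FT lysate (2.5 mg protein/well) for 1 h at 4°C. The lysate then spent 30 min at 4°C with the same 5′-amino-C6 oligos coupled to NHS-Sepharose beads, and bound proteins were quantified by label-free LC-MS/MS, normalised to the control.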

The target of a further data set is T1, TFIP11 (UniProt Q9UBB9).
T1 sequence: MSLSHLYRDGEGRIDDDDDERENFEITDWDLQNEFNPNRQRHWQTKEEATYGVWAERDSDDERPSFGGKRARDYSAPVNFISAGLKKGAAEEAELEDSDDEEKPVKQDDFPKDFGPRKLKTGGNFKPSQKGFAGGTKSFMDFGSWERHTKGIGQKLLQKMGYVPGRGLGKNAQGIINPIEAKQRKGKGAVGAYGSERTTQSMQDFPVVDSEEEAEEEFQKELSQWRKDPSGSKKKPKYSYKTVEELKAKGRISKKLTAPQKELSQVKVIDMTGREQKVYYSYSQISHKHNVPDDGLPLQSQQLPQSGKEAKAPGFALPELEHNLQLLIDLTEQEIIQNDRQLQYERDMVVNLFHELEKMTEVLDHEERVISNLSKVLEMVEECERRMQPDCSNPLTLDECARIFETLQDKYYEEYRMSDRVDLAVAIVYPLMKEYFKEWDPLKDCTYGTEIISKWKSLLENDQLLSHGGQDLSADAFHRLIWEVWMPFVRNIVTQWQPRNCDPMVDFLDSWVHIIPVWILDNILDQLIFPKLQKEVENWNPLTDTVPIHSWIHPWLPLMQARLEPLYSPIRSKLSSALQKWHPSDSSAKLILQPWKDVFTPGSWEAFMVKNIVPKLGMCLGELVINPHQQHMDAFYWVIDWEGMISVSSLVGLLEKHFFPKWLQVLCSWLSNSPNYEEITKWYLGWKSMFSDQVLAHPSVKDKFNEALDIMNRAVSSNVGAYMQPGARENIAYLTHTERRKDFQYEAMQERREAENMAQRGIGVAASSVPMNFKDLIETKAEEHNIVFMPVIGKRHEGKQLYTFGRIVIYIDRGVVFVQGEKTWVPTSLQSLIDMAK
The essentials: as §1

The target in a further data set is T2, LSM2 (UniProt Q9Y333).
T2 sequence: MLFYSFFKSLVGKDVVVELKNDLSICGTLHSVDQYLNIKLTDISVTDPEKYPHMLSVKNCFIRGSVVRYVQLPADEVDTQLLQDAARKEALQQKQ
The gist of the method: as §1

A further data set deals with T3, SYMPK (UniProt Q92797).
T3 sequence: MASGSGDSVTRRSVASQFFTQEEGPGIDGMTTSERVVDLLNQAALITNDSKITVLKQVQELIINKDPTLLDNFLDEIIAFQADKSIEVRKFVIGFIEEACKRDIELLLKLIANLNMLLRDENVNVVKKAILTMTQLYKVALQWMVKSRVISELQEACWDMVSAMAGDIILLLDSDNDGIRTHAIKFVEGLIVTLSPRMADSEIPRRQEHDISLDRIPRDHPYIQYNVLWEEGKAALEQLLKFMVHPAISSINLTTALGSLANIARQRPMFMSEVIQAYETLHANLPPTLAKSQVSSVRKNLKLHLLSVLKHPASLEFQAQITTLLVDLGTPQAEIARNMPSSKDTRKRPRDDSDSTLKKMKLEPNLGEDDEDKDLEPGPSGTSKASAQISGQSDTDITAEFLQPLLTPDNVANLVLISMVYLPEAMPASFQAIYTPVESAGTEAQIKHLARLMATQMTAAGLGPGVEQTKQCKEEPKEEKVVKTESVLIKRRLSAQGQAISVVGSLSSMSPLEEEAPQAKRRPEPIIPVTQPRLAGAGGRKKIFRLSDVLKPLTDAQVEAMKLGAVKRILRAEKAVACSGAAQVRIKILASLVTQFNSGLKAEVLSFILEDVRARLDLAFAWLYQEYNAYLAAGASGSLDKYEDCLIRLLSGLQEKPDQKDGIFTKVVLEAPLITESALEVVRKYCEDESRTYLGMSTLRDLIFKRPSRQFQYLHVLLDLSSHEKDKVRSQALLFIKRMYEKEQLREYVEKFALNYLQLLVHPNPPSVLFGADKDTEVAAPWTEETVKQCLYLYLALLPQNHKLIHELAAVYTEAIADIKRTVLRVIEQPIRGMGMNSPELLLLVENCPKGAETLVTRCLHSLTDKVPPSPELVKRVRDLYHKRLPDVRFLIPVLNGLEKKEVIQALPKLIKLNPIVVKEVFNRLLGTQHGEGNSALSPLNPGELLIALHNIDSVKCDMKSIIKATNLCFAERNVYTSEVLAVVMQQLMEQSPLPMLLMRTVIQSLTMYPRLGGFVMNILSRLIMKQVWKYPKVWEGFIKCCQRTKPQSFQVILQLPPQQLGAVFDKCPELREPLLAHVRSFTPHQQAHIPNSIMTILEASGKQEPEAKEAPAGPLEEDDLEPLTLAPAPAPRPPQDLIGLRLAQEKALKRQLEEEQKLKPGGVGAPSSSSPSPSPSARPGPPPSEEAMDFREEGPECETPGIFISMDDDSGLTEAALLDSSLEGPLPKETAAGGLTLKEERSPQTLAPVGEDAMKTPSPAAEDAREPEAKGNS
The gist of the method:
as §1

Chain of ELAVL1 (Q15717 whole entry): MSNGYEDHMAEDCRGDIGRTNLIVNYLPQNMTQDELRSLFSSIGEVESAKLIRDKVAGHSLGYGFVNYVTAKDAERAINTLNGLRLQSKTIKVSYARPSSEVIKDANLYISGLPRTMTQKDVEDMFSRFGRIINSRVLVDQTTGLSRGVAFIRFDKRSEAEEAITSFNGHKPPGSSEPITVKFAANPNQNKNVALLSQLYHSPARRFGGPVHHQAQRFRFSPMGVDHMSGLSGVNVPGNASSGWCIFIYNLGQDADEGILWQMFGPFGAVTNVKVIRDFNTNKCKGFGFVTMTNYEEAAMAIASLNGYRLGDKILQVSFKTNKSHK

With AAUAAA, the Kd (as a rule, a measure of binding affinity in units of concentration) with ELAVL1 was found to be 440 nM; in the data set with TFIP11 it was 569 nM; in the data set with LSM2, 52.7 nM; with SYMPK it was 12.7 nM.
The matching figures for UAUUUAU: 920 nM, 1230 nM, 309 nM and 254 nM.
